Measurements from the RNAGym collection of RNA variant scans (doi:10.7554/elife.80360).

B1: Hammerhead Ribozyme (parent)
chain: ACCGGAUGUGCUUUCCGGUCUGAUGAGUCCGUGAGGACGAAACAG

Variants of: B1
Experiment: self-cleavage, relative activity (ratio to wild type); higher = more cleavage; co-transcriptional

In order of falling self-cleavage:
1. ACCGGAUGUCCUUUCCGGUCUGAUGAGUUCGUGAGGACGAAACAG [G10C C29U]  1.44
2. ACCGGAUGUGCUUUCCGGUCUGAUGAGUCCUUUAGGACGAAACAG [G31U G33U]  1.23
3. ACCGGAUGUGCGUUCCGGUCUGAUGAGUCCGUUAGGACGAAACAG [U12G G33U]  1.2
4. ACCGGAUGUCGUUUCCGGUCUGAUGAGUCCGUGAGGACGAAACAG [G10C C11G]  1.17
5. AUCGGAUGUGCUUUCCGGUCUGAUGAGUCCGUAAGGACGAAACAG [C2U G33A]  1.14
6. ACCGGAUGUGCUAUCCGGUCUGAAGAGUCCGUGAGGACGAAACAG [U13A U24A]  1.09
7. ACCGGAUGUGCAUUCCGGUCUGAUGAGUCAGUGAGGACGAAACAG [U12A C30A]  1.08
8. ACCGGAUGUGCUUUCCGGUCUGAAGAGUCCGUGAGGACGAAACAG [U24A]  1.03
9. ACCGGAUGUGCUUUUCGGUCUGAUGAGUCCGUGCGGACGAAACAG [C15U A34C]  0.98
10. ACCGGAUGUGCUUUCCGGUCUGAUGAGUCCGCGCGGACGAAACAG [U32C A34C]  0.95
11. ACAGGAUGUGCUUUCCGGUCUGAUGAGUCCAUGAGGACGAAACAG [C3A G31A]  0.912
12. ACCGGAUGUGCUUUCCGGUCUGAUGAAUCCGUGAGGACGAAACAG [G27A]  0.897
13. ACCGGAUGUGUUUUCCGGUCUGAUGAGUUCGUGAGGACGAAACAG [C11U C29U]  0.897
14. ACCGGAUGUGCUUUCCGGUCUGAUGAGUCCGUUAGGAAGAAACAG [G33U C38A]  0.824
15. ACCGGAUGUGCUUACCGGUCUGAUGAGUCCGUGAGGCCGAAACAG [U14A A37C]  0.815
16. ACCGGAUGUGCUUUCCGGUCUGAUGAGUCGGUGCGGACGAAACAG [C30G A34C]  0.802
17. ACCGGAUGUGCUUUACGGUCUGAUGAGUCCGAGAGGACGAAACAG [C15A U32A]  0.782
18. ACCGGAUGUGCUUUCCGGUCUGAUGAGUCCGUGAGAACGAAACGG [G36A A44G]  0.75
19. ACGGGAUGUGAUUUCCGGUCUGAUGAGUCCGUGAGGACGAAACAG [C3G C11A]  0.702
20. ACCGGAUGUGCUUCCCGGUCUGAUGAGUCCGUGUGGACGAAACAG [U14C A34U]  0.67
21. ACCGGAUGUGCUUUCCGGUCUGACGAGUCCGUGAGGACGAAACAC [U24C G45C]  0.641
22. ACCGGACGUGCUUUCCUGUCUGAUGAGUCCGUGAGGACGAAACAG [U7C G17U]  0.625
23. ACCGGAUGUGCUUUCCGUUCUGAUGAGUCCGUGAGAACGAAACAG [G18U G36A]  0.621
24. ACCGGAUGUGCUUUCCGGUCUGAUGAGUACUUGAGGACGAAACAG [C29A G31U]  0.611
25. ACCGGAUGUGCUUUCCGGUCUGACGCGUCCGUGAGGACGAAACAG [U24C A26C]  0.609
26. ACCGGGUGUGCUUUCCGGUCUGAUGAGUCCGUGGGGACGAAACAG [A6G A34G]  0.6
27. CCCGGAUGUGCUUUCCGGUCUGAUGAGUCCGUAAGGACGAAACAG [A1C G33A]  0.57
28. ACCGGCUGUGCUUUGCGGUCUGAUGAGUCCGUGAGGACGAAACAG [A6C C15G]  0.559
29. ACCGGUUGUGCUUUCCGGUCUGAUGAGUCCGUGAGGACGAAACAA [A6U G45A]  0.536
30. ACCGGAUGUGCUUUCCGGUCUGAUGAGUCCGUGUGGACGAAACAC [A34U G45C]  0.533
31. ACCGGCUGUGCUUUCCGGUCUGAGGAGUCCGUGAGGACGAAACAG [A6C U24G]  0.511
32. ACCGGAUGUGCUUUCCGGUCUGAUGUGUCCGUGAGGCCGAAACAG [A26U A37C]  0.509
33. ACCGGAUGUGCUUUCCGGUUUGAUGAGUCCGAGAGGACGAAACAG [C20U U32A]  0.506
34. CCCGGAUGUGCUUUCCGGUCUGAAGAGUCCGUGAGGACGAAACAG [A1C U24A]  0.471
35. ACCGAAUGUGCUUUCCGGUCUGAUGAGUCCGUGAGGACGAAAUAG [G5A C43U]  0.467
36. ACCGGAUGUGCUUUCCGGUCUGAUGAGUCCGUGAGGAAGAAACAU [C38A G45U]  0.461
37. ACCGGUUGUGCUUUCCGGUCUGAUGAGUCCGUGAGGAGGAAACAG [A6U C38G]  0.458
38. ACCGGAUGUGCUUUCCGGUCUGAUGAAUCCGUGACGACGAAACAG [G27A G35C]  0.438
39. ACCGGAUGUGCUUUCCGGUCUGAUGUGUCCGUGAGGACGAGACAG [A26U A41G]  0.434
40. ACCGGAUGUGCUUUCCGAUCGGAUGAGUCCGUGAGGACGAAACAG [G18A U21G]  0.404
41. ACCGGAUGUGCUUUCCUGUCUGAUGAGUCCGUGAGGACGGAACAG [G17U A40G]  0.388
42. ACCGGAUGUGCUUUUCGGUGUGAUGAGUCCGUGAGGACGAAACAG [C15U C20G]  0.387
43. ACCGGAUGUGCUUUCCGGUCAGAUGAGUCCGUGAGGACGAAAAAG [U21A C43A]  0.349
44. CCCGGAUGUGCUUUCCGGUCUGAUGAGUCCGUGAGGACGAACCAG [A1C A42C]  0.336
45. ACCGGAUGUGCUUUCCGGUAUGAUGAGUCCGUGAGGACGAACCAG [C20A A42C]  0.335
46. ACCAGAUGUGCUUUCCGGUGUGAUGAGUCCGUGAGGACGAAACAG [G4A C20G]  0.334
47. ACCGGAUGUGCUUUCCGGUUUGAUGAGUCCGUGAGCACGAAACAG [C20U G36C]  0.327
48. ACCGGAUGUGCUUUCCGGUCUGAUGAGUCAGUGAGGACGAACCAG [C30A A42C]  0.322
49. ACCGGAUGUGCUUUCCGGUCUGGUGAGUCCGUGAGGGCGAAACAG [A23G A37G]  0.314
50. ACCGGAUGUGCUUGCCGGUCUGAUGAGUCCGUGAGGACAAAACAG [U14G G39A]  0.305
51. ACCGUAUGUGCUUUCCGGUCUGAUCAGUCCGUGAGGACGAAACAG [G5U G25C]  0.301
52. ACCGGAUGUGCUUUCUGGUCUGAUGAGUCCGUGAGGACGGAACAG [C16U A40G]  0.294
53. ACCGGAUGUGCUUUCCGCUCUGAUGAGUCCGUGAGGACGAAAUAG [G18C C43U]  0.292
54. ACCGGAUGUGCUUUCCGGACUGAUGAGUCCGUCAGGACGAAACAG [U19A G33C]  0.291
55. ACCGGAUGUGCUUUCCGGACUGAUGAGUCCGUGAGGACUAAACAG [U19A G39U]  0.29
56. ACAGGAUGUGCUUUCCGGUCUGAUGAGUCCGUGAGGACGUAACAG [C3A A40U]  0.278
57. ACCGGAUGUGCUUUCCGGUGUGAUGAGUCCGUGAGCACGAAACAG [C20G G36C]  0.274
